Data on 40 sequences can be found in the nanobody polyreactivity screen of Harvey et al. (2022).

The nature of this data set: yeast display, Sf9 membrane polyspecificity reagent, FACS + sequencing; frameworks hold sequencing errors. Put shortly:
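Galactose-induced (36–48 hours) yeast carrying a synthetic nanobody display library were exposed to 10% biotinylated, detergent-solubilized Sf9 membrane reagent at 4 °C for 1 hour. FACS followed streptavidin microbead enrichment, using low and high (top ~1%) gates for expression (anti-HA) and reagent binding (streptavidin). Colony PCR, MiSeq 2 × 250 sequencing and CDR-length filtering followed. Labels for polyreactivity reflect the gate of origin.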
On to “QVQLVESGGGLVQAGGSLRLSCAASGIIFCRYAMGWYTQAPGKERELVAAISSSGSTYYADSVKGRFTISRDNATNTVYLQMNSLKPEDTAVYYCAAYSYPAGEYDYWGQGTQVTVSS”, for which the “polyreactivity (PSR sort gate)” value was “low polyreactivity”.
The result for “QVQLVESGGGLVQAGGSLRLSCAASGIIFDAYGMGWYRQAPGKEMELVAAINTVGSTNYADSVKGRFTISRDNAKNTVYLQMNSLKPEDTAVYYCAADSYFYDPYDYWGQGTQVTVSS” reads “low polyreactivity”; that for “QVQLVESGGGLVQAGGSLRLSCAASGIIFDDYAMGWYRQAPGKERELVAAITDSGGSTYYADSVKGRFTISRDNAKNTVYLQMNSLKPEDTAVYYCAARTQRRVNRVGYRSNYYYWGQGTQVTVSS”, “low polyreactivity”.
For “QVQLVESGGGLVQAGGSLRLSCAASGIIFDGYAMGWYRQAPGKEREFVAGITWSGGSTYYADSVKGRFTISRDNAKNTVYLQMNSLKPEDTSVYYCAAKYYWYYSYSGIPLFDYWGQGTQVTVSS” the value was “low polyreactivity”; for “QVQLVESGGGLVQAGGSLRLSCAASGIIFDGYAMGWYRQAPGKEREFVAVISSSGGTTYYADSVKGRFTISRDNAKNTVYLQMNSLKPEDTAVYYCATLRYSPGWYTRDDYWGQGTQVTVSS”, “low polyreactivity”; for “QVQLVESGGGLVQAGGSLRLSCAASGIIFDSYALGWYRQAPGKERELVAAITSRGGRTYYAVSVKGRFTISRDNAKNTVYLQMNSLKPEDTAVYYCAARAKYDRRTDGTSGYDYWGQGTQVTVSS”, “low polyreactivity”.
For “QVQLVESGGGLVQAGGSLRLSCAASGIIFDSYAMGWYRQAPGKERELVAAITSDSGRTYYADSVKGRFTISRDNAKKTVYLQMNSLKPEDTAVYYCAKRWDGPYDYWGQGTQVTVSS” the value was “low polyreactivity”.
Take “QVQLVESGGGLVQAGGSLRLSCAASGIIFDSYAMGWYRQAPGKERELVAAITSDSGRTYYADSVKGRFTISRDNAKNTVYLHMNSLKPEDTAVYYCNADAYTYPTARYYWGQGTQVTVSS”: the “polyreactivity (PSR sort gate)” value was “low polyreactivity”.
For “QVQLVESGGGLVQAGGSLRLSCAASGIIFDSYAMGWYRQAPGKERELVAAITSRGGRTYYADSVKGRFTISRDNAKNTVSLQMNSLKPEDTAVYYCAARAKYDRRTDGTSGYDYWGQGTQVTVSS” the value was “low polyreactivity”; for “QVQLVESGGGLVQAGGSLRLSCAASGIIFDSYTMGWYRQAPGKERELVAGISGSGGSTDYADSVKGRFTISRDNAKNTFYLQMNSLKPEDTAVYYCAARPTPYRDDADEYWGQGTQVTVSS”, “low polyreactivity”; for “QVQLVESGGGLVQAGGSLRLSCAASGIIFDYNAMGWYRQAPGKERELVAAITWSGSSTFYADSVKGRFTISHDNAKNTVYLLMNSLKPEDTAVYYCNAEYYWGTYANFDYWGQGTQVTVSS”, “low polyreactivity”.
The result for “QVQLVESGGGLVQAGGSLRLSCAASGIIFEGNVMGWYRQAPGKERELVAAITSDTSTNYADSVKGRFTISRDNAKNTVYLQMNSLKPEDTAVYYCNAVIGTDYYYSGTAEFYYWGQGTQVTVSS” reads “low polyreactivity”.
For “QVQLVESGGGLVQAGGSLRLSCAASGIIFEGYAMGWYRQAPGKERELVAAISQSGGSTRYADSVKGRFTISRDNAKNTVYLQMNSLKPEDTAVYYCAARYILWDGDSWTEFDYWGQGTQVTVSS”, the “polyreactivity (PSR sort gate)” value is listed as “low polyreactivity”.
The result for “QVQLVESGGGLVQAGGSLRLSCAASGIIFENYAMGWYRQAPGKERELVAAITIGGSTYYADSVKGRFTISRDNAKNTVYLQMNSLKPEDTAVYYCAARSGAQRGGGYWGQGTQVTVSS” reads “high polyreactivity”.
For “QVQLVESGGGLVQAGGSLRLSCAASGIIFEYYAMGWYRQAPGKERELVAAISKRGGSTYYADSVKGRFTISRDNAKNTVYLQMNSLKPEDTAVYYCNARRRYYSGPVYLHYRVNYWGQGTQVTVSS” the value was “high polyreactivity”.
The result for “QVQLVESGGGLVQAGGSLRLSCAASGIIFEYYAMGWYRQAPGKERELVAAITRGGSTYYADSVKGRFTISRDNAKNTVYLQMNSLKAEDTAVYYCAADRYYYEYDYWGQGTQVTVSS” reads “low polyreactivity”.
As for “QVQLVESGGGLVQAGGSLRLSCAASGIIFFANAMGWYRQAPGKERELVASISASGGNTYYADSVKGRFTISRDNAKNTVYLQMNSLKPEDTAVYYCAARARRSQSISLKYYYWGQGTQVTVSS”, the “polyreactivity (PSR sort gate)” value is given as “high polyreactivity”.
For “QVQLVESGGGLVQAGGSLRLSCAASGIIFFDYAMGWYRQAPGKDRELVAAISSGGGNTYYADSVKGRFTISRDNAKNTVYLQMNSLKPEDSAVYYCAAEPYIYGEQGAYDYWGQGTQVTVSS” the value was “low polyreactivity”.
For “QVQLVESGGGLVQAGGSLRLSCAASGIIFFKNAMGWYRQAPGKERELVAAISSTDTRTYYADSVKGRFTISRDNAKNTVYLQMNSLKPEDTAVYYCAASRRGGGLDYWGQGTQVTVSS” the value was “high polyreactivity”; for “QVQLVESGGGLVQAGGSLRLSCAASGIIFFNNVMGWYRQAPGKERVLVAGITYTGGSTYYADSVKGRFTISRDNAKNTVYLHMNSLKPEDTAVYNCNKDYANTRRVTEYDYWGQGTQVTVSS”, “low polyreactivity”.
For “QVQLVESGGGLVQAGGSLRLSCAASGIIFFRNAMGWYRQAPGKERELVAAIRWSGGSSYYADSVKGRYTISRDNAKNTVYLQINSLKPEDTAVYYCNAVTVYKHGSWGQGTQVTVSS” the value was “high polyreactivity”; for “QVQLVESGGGLVQAGGSLRLSCAASGIIFFSNAMGWYRQAPGKERELVAAITGGSSTNYADSVKGRFTISRDNAKNTVYLQMNSLKPEENAVYYCNAPTKSTPRSEPIPYYEFDYWGQGTQVTVSS”, “low polyreactivity”.
Turning to “QVQLVESGGGLVQAGGSLRLSCAASGIIFFWNAMGWYRQAPGKERELVAAISEDGGGTYYADSVKGRFTISRDNAKNTVYLQMNSLKPEDTAVYYCNTDTSPQIVTRRSFDDYWGQGTQVTVSS”, the “polyreactivity (PSR sort gate)” value is “low polyreactivity”.
With “QVQLVESGGGLVQAGGSLRLSCAASGIIFFWNAMGWYRQAPGKERELVAAISEDGGGTYYADSVKGRFTISRDNAKNTVYLQMNSMKPEDTAVYYCNTDTSPQIVTRGSFDDYWGQGTQATVSS”, the “polyreactivity (PSR sort gate)” value was “low polyreactivity”.
Regarding “QVQLVESGGGLVQAGGSLRLSCAASGIIFGDNAMGWYRQAPGKERELVAAIDSGGSTYYADSVKGRFTISRDNAKTTVYCPMNSLKPEDTAVYYCNAVTAFGYSYGGWDYDQYNYWGQGTQVTVSS”, the “polyreactivity (PSR sort gate)” value is “low polyreactivity”.
On to “QVQLVESGGGLVQAGGSLRLSCAASGIIFGDNAMGWYRQAPGKERELVAAISSSGTSTNYADSVKGRFTISRDNAKNTVYLQMNSLKPEDSAVYYCAKDVLPPYPQSPSGGDYWGQGTQVTVSS”, for which the “polyreactivity (PSR sort gate)” value was “low polyreactivity”.
“QVQLVESGGGLVQAGGSLRLSCAASGIIFGDNAMGWYRQAPVTERELVAAIDSGGSTYYADSVKGRFTISRDNAKNTVYLQMISLKPEDTAVYYCNAVTAFGYSYAGWDYDQYNYWGQGTEVTVSS”: the “polyreactivity (PSR sort gate)” value is “low polyreactivity”.
The result for “QVQLVESGGGLVQAGGSLRLSCAASGIIFGGNAMGWYRQAPGKERELVATISNGGSTKYADSVKGRFTISRDNAKNTVYLQMNSLKPEYTAVYYCAAQPRVGSYVRSSRGRYNHWGQGTQVTVSS” reads “high polyreactivity”.
The result for “QVQLVESGGGLVQAGGSLRLSCAASGIIFGGYAMGWYRQAPGKERELVADISGISSNTYYADSVKGRFTISRDNAKNTVYLQMNSLKPEDTAVYYCAADLTAWWAPVIFYYWGQGTQVTVSS” reads “high polyreactivity”; that for “QVQLVESGGGLVQAGGSLRLSCAASGIIFGGYAMGWYRQAPGKERELVASITYDGGSTSYEDSVKGRFTISRDNAKNTVYLQMNSLKPEDTAVYYCNAELFSVNGYDYWGQGTQVTVSS”, “low polyreactivity”.
The result for “QVQLVESGGGLVQAGGSLRLSCAASGIIFGGYDMGWYRQAPGKERELVAAISWSGGSTYYADSVKGRFTISRDNAKNTVYLQMNSLKPEDTAVYYCAAAYYAPSRDYYYWGQGTQVTVSS” reads “low polyreactivity”; that for “QVQLVESGGGLVQAGGSLRLSCAASGIIFGINAMGWYRQAPGKERELVATITSGGGTNYADSVKGRFTISRDNAKNTVYLQMNSLKPEDTAVYYCAKPTYRFYWGDFDYWGQGTQVTVSS”, “low polyreactivity”; that for “QVQLVESGGGLVQAGGSLRLSCAASGIIFGKYAMGWYRQAPGKERELVAAINYSGSTYYADSVKGRFTISRDNAKNTVYLQMNSLKPEDTAVYYCAAVLGLDTRYDYWGQGTQVTVSS”, “high polyreactivity”.
With “QVQLVESGGGLVQAGGSLRLSCAASGIIFGRNVMGWYRQAPGKERELVAAISWSGGSTYYADSVKGRFTISRDNAKNTVYLQMNSLKPEDTAVYYCAASYWWIPMEYWGQGTQVTVSS”, the “polyreactivity (PSR sort gate)” value is recorded as “high polyreactivity”.
Turning to “QVQLVESGGGLVQAGGSLRLSCAASGIIFGRYAMGWYRQSPGKERELVAAISSRGGSTYYADSVKGRFTISRDNAKNTVYLQMNSLKPEDTAVYYCAATWCFLRGSTKYYYWGQGTQVTVSS”, the “polyreactivity (PSR sort gate)” value was “high polyreactivity”.
The result for “QVQLVESGGGLVQAGGSLRLSCAASGIIFGRYPMGWYRQAPGKERELVAAITSSGITYYADSVKGRFTISRDNAKNTVYLQMNSLKPEDTAVYYCNADYSIPGYYWPYDYWGQGTQVTVSS” reads “low polyreactivity”.
For “QVQLVESGGGLVQAGGSLRLSCAASGIIFGSYAMGWYRQAPGKERELVAAISRGTSTYYAVSVKGRFTISRDNAKNTVYLQMNSLKPEDSAVYYCAATRQQYGPHSRFVYVNYYYCGQGTQVTVSS” the value was “low polyreactivity”; for “QVQLVESGGGLVQAGGSLRLSCAASGIIFGTNAMGWYRQAPGKERELVAYITSGGSTYADSVKGRFTISRDNAKNTFYLQMHSLKPEDTEVYYCAAYVFWAFYEYDYWGQGTQVTVSS”, “low polyreactivity”; for “QVQLVESGGGLVQAGGSLRLSCAASGIIFGTYAMGWYRQAPGKERELVAAITRSGGSTYYADSVMGRFTISRDNAKNTVYLQMNSLKPEDTAVYYCAASSTWYGYYIYVFRAYDYWGQGTQGTVSS”, “low polyreactivity”.
The result for “QVQLVESGGGLVQAGGSLRLSCAASGIIFGTYAMGWYRQAPGKERELVASISSRGGSTYYADTVKGRFTISRDNAKNTVYLQMNSLKPEDTAVYYCAARNAYPGNSMDSWGLGTQVTVSS” reads “high polyreactivity”.
